{"source": "patent US20260263646A1", "about": "(ENLAZA THERAPEUTICS, published 2026)", "key": {"HER2 on BT-474 cells [1]": {"biological_target": "T1, HER2 on BT-474 cells (human, UniProt P04626 23-1255)", "assay": "cell-based or functional assay"}, "HER2 on BT-474 cells [2]": {"biological_target": "T1, HER2 on BT-474 cells", "assay": "flow cytometry on BT-474 cells, pH 6.0"}, "PSMA on PC3pip cells [3]": {"biological_target": "T2, PSMA on PC3pip cells (UniProt Q04609 1-750, limits assumed)", "T2 sequence (Q04609 whole entry)": "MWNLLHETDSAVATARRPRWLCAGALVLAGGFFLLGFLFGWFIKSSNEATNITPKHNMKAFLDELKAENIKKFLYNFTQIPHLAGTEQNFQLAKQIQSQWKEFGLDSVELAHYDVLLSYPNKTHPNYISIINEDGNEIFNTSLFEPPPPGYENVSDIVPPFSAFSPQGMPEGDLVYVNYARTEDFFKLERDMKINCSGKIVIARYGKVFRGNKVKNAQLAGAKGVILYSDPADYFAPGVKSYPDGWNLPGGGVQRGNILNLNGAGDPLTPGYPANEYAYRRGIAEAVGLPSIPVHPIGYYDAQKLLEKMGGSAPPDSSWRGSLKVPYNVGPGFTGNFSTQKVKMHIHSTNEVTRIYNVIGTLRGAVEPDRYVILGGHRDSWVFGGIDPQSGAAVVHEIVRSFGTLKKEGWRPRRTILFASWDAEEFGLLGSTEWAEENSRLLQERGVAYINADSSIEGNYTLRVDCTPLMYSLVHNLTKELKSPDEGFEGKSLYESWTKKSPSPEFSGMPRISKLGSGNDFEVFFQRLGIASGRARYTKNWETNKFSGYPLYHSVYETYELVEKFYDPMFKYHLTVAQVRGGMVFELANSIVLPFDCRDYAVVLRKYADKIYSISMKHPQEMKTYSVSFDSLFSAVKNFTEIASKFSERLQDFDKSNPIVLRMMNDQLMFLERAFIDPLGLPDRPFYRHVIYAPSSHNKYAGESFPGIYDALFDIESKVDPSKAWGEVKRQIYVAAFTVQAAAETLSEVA", "assay": "cell-based or functional assay"}, "PSMA on PC3pip cells [4]": {"biological_target": "T2, PSMA on PC3pip cells", "assay": "cell-based or functional assay", "remark": "listed apart in the source"}, "[5]": {"biological_target": "T3, Fc-tagged Her2 (Acrobiosystem #HER2-H5253) (UniProt P04626 23-652)", "T3 construct": "also called Her2-Fc; FcHer2", "assay": "SDS-PAGE time course"}, "PSMA on LNCaP cells [6]": {"biological_target": "T4, PSMA on LNCaP cells (human, UniProt Q04609 1-750)", "T4 construct": "whole, on cells; also called LNCaP (PSMA+)", "assay": "flow cytometry on LNCaP cells"}, "[7]": {"biological_target": "T5, PSMA with a Fc tag (Acrobiosystem PSA-H5264) (UniProt Q04609 44-750)", "T5 construct": "Printed 'Fe tag'; captured on AHC sensors; also called PSMA with a Fe tag", "T5 sequence (Q04609 44-750 limits assumed)": "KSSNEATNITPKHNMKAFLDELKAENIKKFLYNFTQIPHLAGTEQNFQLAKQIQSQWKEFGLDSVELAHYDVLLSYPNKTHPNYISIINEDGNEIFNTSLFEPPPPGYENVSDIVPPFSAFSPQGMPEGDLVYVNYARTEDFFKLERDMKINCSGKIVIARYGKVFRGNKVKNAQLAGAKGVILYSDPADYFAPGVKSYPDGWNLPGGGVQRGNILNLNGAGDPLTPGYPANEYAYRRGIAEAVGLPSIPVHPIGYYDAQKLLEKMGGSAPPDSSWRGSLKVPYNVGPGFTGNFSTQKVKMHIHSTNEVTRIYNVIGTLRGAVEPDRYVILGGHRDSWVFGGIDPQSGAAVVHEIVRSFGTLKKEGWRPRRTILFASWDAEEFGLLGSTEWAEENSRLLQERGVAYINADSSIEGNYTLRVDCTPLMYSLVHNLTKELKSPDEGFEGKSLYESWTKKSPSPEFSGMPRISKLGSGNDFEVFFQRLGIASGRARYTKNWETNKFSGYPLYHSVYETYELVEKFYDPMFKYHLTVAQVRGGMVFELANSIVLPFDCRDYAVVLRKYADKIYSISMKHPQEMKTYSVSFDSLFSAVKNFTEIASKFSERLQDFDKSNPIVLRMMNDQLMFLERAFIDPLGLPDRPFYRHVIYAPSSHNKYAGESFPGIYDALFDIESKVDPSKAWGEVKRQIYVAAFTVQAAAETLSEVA", "assay": "biolayer interferometry, PSMA-Fc on AHC sensor"}, "[8]": {"biological_target": "T6, PSMA (commercial, Sino Bio cat #15877-H07H) (UniProt Q04609 44-750)", "T6 construct": "also called receptor", "T6 sequence (Q04609 44-750 limits assumed)": "as above", "assay": "SDS-PAGE time course, 37C"}, "PSMA on LNCaP cells [9]": {"biological_target": "T4, PSMA on LNCaP cells", "assay": "flow cytometry on LNCaP cells", "remark": "listed apart in the source"}}, "note": "Read-outs that look alike come from different tables or passages of the source. [ ]: non-standard residue; d: D form. Tyr(SO2F) = N[C@@H](Cc1ccc(OS(=O)(=O)F)cc1)C(=O)O"}
{"binder": "C33-54TYR (VHH, PEG8-vc-PABC-MMAE on the C-terminal GGG) VHH: QVQLQESGGGSVQAGGSLKLTCAASGYIFNSCGMGWYRQSPGRERELVSRISGYGDTWHKESVKGRFTISQDNVKKTLYLQMNSLKPEDTAVYFCAVCYNLETYWGQGTQVTVSS", "values": [{"measurement": "IC50 (nM) - 5 h, BT474 viability after 5 h washout", "setting": "HER2 on BT-474 cells [1]", "value": 21.6, "unit": "nM"}, {"measurement": "IC50 (nM) - 6 days, BT474 viability, continuous exposure", "setting": "HER2 on BT-474 cells [1]", "value": 0.328, "unit": "nM"}, {"measurement": "EC50", "setting": "HER2 on BT-474 cells [2]", "value": 2.5, "unit": "nM"}]}
{"binder": "C33-52TYR (VHH, PEG8-vc-PABC-MMAE on the C-terminal GGG, by sortase ligation) VHH: QVQLQESGGGSVQAGGSLKLTCAASGYIFNSCGMGWYRQSPGRERELVSRIYGDGDTWHKESVKGRFTISQDNVKKTLYLQMNSLKPEDTAVYFCAVCYNLETYWGQGTQVTVSS", "values": [{"measurement": "IC50 (nM) - 5 h, BT474 viability after 5 h washout", "setting": "HER2 on BT-474 cells [1]", "value": "> 100", "unit": "nM"}, {"measurement": "IC50 (nM) - 6 days, BT474 viability, continuous exposure", "setting": "HER2 on BT-474 cells [1]", "value": 8.42, "unit": "nM"}, {"measurement": "EC50", "setting": "HER2 on BT-474 cells [2]", "value": 160, "unit": "nM"}]}
{"binder": "C26-54FSY (VHH, FSY at 54 (X of the entry); MC-PEG8-VC-PABC-MMAE on the C-terminal Cys) VHH: EVQLVESGGGLVQPGGSLTLSCAASRFMISEYSMHWVRQAPGKGLEWVSTINPXGTTDYAESVKGRFTISRDNAKNTLYLQMNSLKPEDTAVYYCDGYGYRGQGTQVTVSS", "values": [{"measurement": "fold potency against C26-54TYR", "setting": "PSMA on PC3pip cells [3]", "value": 3.57, "unit": "fold"}, {"measurement": "IC50 PC3pip (M), cell viability by CellTiter-Glo after 4 days", "setting": "PSMA on PC3pip cells [4]", "value": "9.39e-10", "unit": "M"}]}
{"binder": "C28-101FSY (VHH, FSY at 101 (X of the entry); MC-PEG8-VC-PABC-MMAE on the C-terminal Cys) VHH: QVQLQESGGGSVEAGGSLRLSCARSGWPYSTYSMNWFRQAPGKEREAVAGISSTMSGIIFAESKAGQFTISQDNAKNTVYLQMNNLKPEDTAIYYCAARRXFSLSSSSDDFDYWGQGTQVTVSS", "values": [{"measurement": "fold potency against C28-101TYR", "setting": "PSMA on PC3pip cells [3]", "value": "> 400", "unit": "fold"}, {"measurement": "IC50 PC3pip (M), cell viability by CellTiter-Glo after 4 days", "setting": "PSMA on PC3pip cells [4]", "value": "1.8e-10", "unit": "M"}]}
{"binder": "C38-FSY (designed binder, also called C15-66FSY-C16; biparatopic DARPin) MDLGKKLLEAARAGQDDEVRILMANGADVNAHDFYGITPLHLAANFGHLEIVEVLLKHGADVNAF[Tyr(SO2F)]YDNTPLHLAADAGHLEIVEVLLKYGADVNASDRDGHTPLHLAAREGHLEIVEVLLKNGADVNAQDKFGKTAFDISIDNGNEDLAEILQKLGGGGSRSDLGKKLLEAARAGQDDEVRILMANGADVNAKDEYGLTPLYLATAHGHLEIVEVLLKNGADVNAVDAIGFTPLHLAAFIGHLEIAEVLLKHGADVNAQDKFGKTAFDISIGNGNEDLAEILQKLNGS", "values": [{"measurement": "crosslinking", "setting": "[5]", "value": 50, "unit": "%"}]}
{"binder": "C2-54TYR (VHH, C2 sdAb with tyrosine at position 54; also called C2-TYR) VHH: EVQLVESGGGLVQPGGSLTLSCAASRFMISEYSMHWVRQAPGKGLEWVSTINPYGTTDYAESVKGRFTISRDNAKNTLYLQMNSLKPEDTAVYYCDGYGYRGQGTQVTVSS", "values": [{"measurement": "EC50", "setting": "PSMA on LNCaP cells [6]", "value": 6.75, "unit": "nM"}, {"measurement": "Kd", "setting": "[7]", "value": 9.1, "unit": "nM"}]}
{"binder": "C40-102FSY (bispecific antibody, FSY at 102 of the first sdAb, also called C40-FSY; C1-C101A/C104A/H102(FSY)-L1-C1-C39) QVQLQESGGGSVQAGGSLRLSCTAPGYTDSNYYMSWFRQAPGKEREWVAGVNTGRGSTSYADSVKGRFTISQDNAKNTMFLQMNSLKPEDTAIYYCAVAAAXFADSLPKTQDEYILWGQGTQVTVSSAAAYPYDVPDYGSGGGGSGGGGSQVQLQESGGGSVQAGGSLRLSCTAPGYTDSNYYMSWFRQAPGKEREWVAGVNTGRGSTSYADSVKGRFTISQDNAKNTMFLQMNSLKPEDTAIYYCAVAAAHFADSLPKTQDEYILWGQGTQVTVSSAAAYPYDVPDYGSHHHHHH", "values": [{"measurement": "fold crosslinking rate against C39-102FSY", "setting": "[8]", "value": 2, "unit": "fold"}, {"measurement": "t1/2 maximum crosslinking", "setting": "[8]", "value": "~30", "unit": "min"}]}
{"binder": "C39-102FSY (VHH, FSY at 102 (X of the entry), pelB leader cleaved off; also called C1-C101A/C104A/H102(FSY); C39-FSY C1) VHH: QVQLQESGGGSVQAGGSLRLSCTAPGYTDSNYYMSWFRQAPGKEREWVAGVNTGRGSTSYADSVKGRFTISQDNAKNTMFLQMNSLKPEDTAIYYCAVAAAXFADSLPKTQDEYILWGQGTQVTVSS", "values": [{"measurement": "t1/2 maximum crosslinking", "setting": "[8]", "value": "~60", "unit": "min"}]}
{"binder": "C2-54FSY (VHH, FSY at 54, also called C2-A54(FSY); C2-FSY) VHH: EVQLVESGGGLVQPGGSLTLSCAASRFMISEYSMHWVRQAPGKGLEWVSTINPXGTTDYAESVKGRFTISRDNAKNTLYLQMNSLKPEDTAVYYCDGYGYRGQGTQVTVSS", "values": [{"measurement": "EC50", "setting": "PSMA on LNCaP cells [9]", "value": 12.2, "unit": "nM"}, {"measurement": "Kd", "setting": "[7]", "value": 10.9, "unit": "nM"}]}
